{"source": "paper PMC7217966", "key": {"CsgG (Escherichia coli)": {"target": "CsgG (Escherichia coli) (UniProt P0AEA2)", "details": "cited from earlier work"}, "CsgG-6xHis (E. coli)": {"target": "CsgG-6xHis (E. coli) (UniProt P0AEA2)", "experiment": "SPR; Biacore 3000, NTA sensor chip activated with NiSO4; CsgG-His (200 nM) immobilised via the His-tag; N22 peptide injected at 50 μl/min, 20 − 1 nM; 10 mM HEPES, 150 mM NaCl, 0.36 mM DDM, pH 8.0; non-activated reference flow cell; 1:1 binding model"}}}
{"substance": "CsgA N6 peptide N6 (from UniProt P28307)", "values": [{"measurement": "Kd", "setting": "CsgG (Escherichia coli)", "result": 28.3, "unit": "µM"}]}
{"substance": "CsgA N22 peptide", "values": [{"measurement": "Kd", "setting": "CsgG-6xHis (E. coli)", "result": 0.53, "unit": "µM"}]}
